Results from patent publication US20170258948A1 (Bristol-Myers Squibb, published 2017).

Legend:
[1] = target: T1, cyno PD-L1 (cyno (cynomolgus monkey), UniProt G7PSE7 19-239); experiment: SPR (Biacore), cyno PD-L1
T1 construct: also called cynomolgus PD-L1

[2] = target: T2, human PD-L1 (Programmed Death Ligand-1), protein used in Biacore and ELISA (human, UniProt Q9NZQ7 19-239); experiment: SPR (Biacore), human PD-L1
T2 construct: also called hPD-L1; CD274

[3] = target: T2, human PD-L1 (Programmed Death …); experiment: ELISA, inhibition of binding of human CD80 (B7-1) to human PD-L1
[4] = target: T2, human PD-L1 (Programmed Death …); experiment: summary sentence on the binding data (Biacore); limit tied to E01 by Table 2
[5] = target: T3, human PD-L1 expressed on cells (hPD-L1-positive L2987 human lung carcinoma cells); L2987 xenograft and human … (human, UniProt Q9NZQ7 19-290); experiment: cell-based or functional assay
T3 sequence (Q9NZQ7 19-290): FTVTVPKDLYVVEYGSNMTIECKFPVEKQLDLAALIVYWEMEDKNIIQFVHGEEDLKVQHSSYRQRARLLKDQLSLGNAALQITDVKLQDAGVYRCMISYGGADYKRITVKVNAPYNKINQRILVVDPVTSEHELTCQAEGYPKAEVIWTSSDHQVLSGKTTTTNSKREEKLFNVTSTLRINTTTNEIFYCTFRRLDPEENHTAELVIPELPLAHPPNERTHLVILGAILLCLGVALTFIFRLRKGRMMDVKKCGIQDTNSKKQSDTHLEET

[6] = target: T2, human PD-L1 (Programmed Death …); experiment: method not stated (Table 1, binding properties of anti-PD-L1 Adnectins)
[7] = target: T2, human PD-L1 (Programmed Death …); experiment: summary sentence on the binding data (Biacore); limit tied to A02 by Table 2
[8] = target: T3, human PD-L1 expressed on cells …; experiment: cell binding to human PD-L1 positive L2987 cells; Cys-capped form; Cys-capped form
[9] = target: T3, human PD-L1 expressed on cells …; experiment: radiotracer binding to cells on ice, gamma counting
Experimental: After the incubation period, cell samples were centrifuged at 200×g and the supernatant was discarded. Cell pellets were resuspended in 1 mL PBS+0.5% BSA and the wash procedure repeated for a total of 3 washes. Following the final wash, cells were again centrifuged at 200×g and the supernatant was discarded. The radioactivity of the remaining cell pellets was then measured by gamma counter.

T2 sequence (Q9NZQ7 19-239 limits assumed): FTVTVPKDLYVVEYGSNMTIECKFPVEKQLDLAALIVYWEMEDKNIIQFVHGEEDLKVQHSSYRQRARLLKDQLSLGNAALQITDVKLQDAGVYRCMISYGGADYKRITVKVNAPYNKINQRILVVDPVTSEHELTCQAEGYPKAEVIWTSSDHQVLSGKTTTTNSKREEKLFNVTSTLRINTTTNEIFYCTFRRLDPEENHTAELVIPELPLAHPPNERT
T1 sequence (G7PSE7 entry or part of it): as the sequence (Q9NZQ7 19-239 limits assumed) above, with A33T, A34S, S62N, R68Q, Q82R, F173L, T185A, T192I, H215L counted along it

B1: ATI-964 (designed binder)
chain: MGVSDVPRDLEVVAATPTSLLISWSYDGSIERYYRITYGETGGNSPVQEFTVPPDQKTATISGLKPGVDYTITVYAVRLEEAHYYRESPISINYRTEIDKPSQHHHHHH
notes: 10Fn3 Adnectin; also called parent of ADX_5322_A02
Kd [1]: 0.14 nM | Kd [2]: 0.21 nM | koff [2]: 7.7e-05 s⁻¹ | kon [2]: 360000 M⁻¹ s⁻¹ | EC50 [3]: 0.041 nM

B2: ADX_5417_E01 (designed binder)
chain: MGVSDVPRDLEVVAATPTSLLISWRAQLSPSFYYRITYGETGGNSPVQEFTVPNDVMTATISGLKPGVDYTITVYAVTTHGVYFYSPISINYRTPCHHHHHH
Kd [2]: 0.013 nM | koff [2]: 0.00026 s⁻¹ | kon [2]: 2e+07 M⁻¹ s⁻¹ | Kd [4]: < 0.1 nM

B3: ATI-968 (designed binder)
chain: MGVSDVPRDLEVVAATPTSLLISWIAPFYNVIYYRITYGETGGNSPVQEFTVPGTGYTATISGLKPGVDYTITVYAVTDGASIASYAFPISINYRTEIDKPSQHHHHHH
notes: 10Fn3 Adnectin; also called ADX_1760_C01
Kd [1]: 0.11 nM | Kd [2]: 0.16 nM | koff [2]: 0.00012 s⁻¹ | kon [2]: 750000 M⁻¹ s⁻¹ | EC50 [3]: 0.056 nM

B4: ^64Cu-A02-NODAGA (designed binder)
chain: GVSDVPRDLEVVAATPTSLLISWSYDGPIDRYYRITYGETGGNSPVQEFTVPPDQKTATISGLKPGVDYTITVYAVRLEEAHYNREFPISINYRTPC
modifications: C-terminal cysteine (of the added PC) linked to maleimide-NODAGA chelating ^64Cu
PET radiotracer uptake in hPD-L1(+) L2987 xenografts relative to hPD-L1(-) HT-29 xenografts in mice (final 10 minutes of the 2 h time-activity curve) [5]: 3.05 fold

B5: ^18F-A02 Adnectin ([^18F]-A02-4PEG-DBCO-FPPEGA) (designed binder)
chain: GVSDVPRDLEVVAATPTSLLISWSYDGPIDRYYRITYGETGGNSPVQEFTVPPDQKTATISGLKPGVDYTITVYAVRLEEAHYNREFPISINYRTPC
modifications: C-terminal cysteine linked to Maleamide-DBCO-FFP(18F) (maleimide-PEG4-DBCO clicked with [^18F]-FPPEGA)
maximum radiotracer uptake ratio in hPD-L1(+) L2987 xenografts vs. hPD-L1(-) HT-29 xenografts (PET, mice) [5]: 3.53 ratio

B6: ATI-1421E04 (designed binder)
chain: MGVSDVPRDLEVVAATPTSLLISWSYNGPIEYRITYGETGGNSPVQEFTVPDQQATISGLKPGVDYTITVYALEEAHYSRQSISINYRTEIDKPSQHHHHHH
notes: 10Fn3 Adnectin; also called AT1-1421E04
Kd [6]: 5.6 nM

B7: ADX_5322_A02 (designed binder)
chain: MGVSDVPRDLEVVAATPTSLLISWSYDGPIDRYYRITYGETGGNSPVQEFTVPPDQKTATISGLKPGVDYTITVYAVRLEEAHYNREFPISINYRTPCHHHHHH
Kd [7]: < 1 nM | Kd [2]: 0.228 nM | koff [2]: 0.00057 s⁻¹ | kon [2]: 2.5e+06 M⁻¹ s⁻¹

B8: ADX_5322_A02 (Cys-Capped) (designed binder)
chain: MGVSDVPRDLEVVAATPTSLLISWSYDGPIDRYYRITYGETGGNSPVQEFTVPPDQKTATISGLKPGVDYTITVYAVRLEEAHYNREFPISINYRTPCHHHHHH
modifications: Cys-Capped (so in the source); capping group not stated
EC50 [8]: 0.43 nM

B9: ATI-1420B09 (designed binder)
chain: MGVSDVPRDLEVVAATPTSLLISWHKFSSLMSYRITYGETGGNSPVQEFTVGSVNATISGLKPGVDYTITVYAIHNVGFISINYRTEIDKPSQHHHHHH
notes: 10Fn3 Adnectin
Kd [6]: 2.5 nM

B10: ATI-965 (designed binder)
chain: MGVSDVPRDLEVVAATPTSLLISWTAYDSVDKYYRITYGETGGNSPVQEFTVGPRHHTATISGLKPGVDYTITVYAVYHTEPGYHAHMPISINYRTEIDKPSQHHHHHH
notes: 10Fn3 Adnectin
Kd [1]: 0.8 nM | Kd [2]: 0.71 nM | koff [2]: 0.00033 s⁻¹ | kon [2]: 460000 M⁻¹ s⁻¹ | EC50 [3]: 0.21 nM

B11: ATI-1420D05 (designed binder)
chain: MGVSDVPRDLEVVAATPTSLLISWTAYYSTIKYRITYGETGGNSPVQEFTVGPKHHATISGLKPGVDYTITVYAYNTKPGYHAHQISINYRTEIDKPSQHHHHHH
notes: 10Fn3 Adnectin
Kd [6]: 9.5 nM

B12: ^64Cu-E01-NODAGA (designed binder)
chain: GVSDVPRDLEVVAATPTSLLISWRAQLSPSFYYRITYGETGGNSPVQEFTVPNDVMTATISGLKPGVDYTITVYAVTTHGVYFYSPISINYRTPC
modifications: C-terminal cysteine (of the added PC) linked to maleimide-NODAGA chelating ^64Cu
notes: Modified E01 (ADX_5417_E01 with N leader and C-terminal PC); also called ^64Cu-E01 anti-PD-L1 Adnectin
fold higher cell associated radioactivity against hPD-L1-negative HT-29 cells [9]: 44.6 fold

B13: ATI-966 (designed binder)
chain: MGVSDVPRDLEVVAATPTSLLISWHRFSSIMAYYRITYGETGGNSPVQEFTVAGSVNTATISGLKPGVDYTITVYAVTIHNVSFPISINYRTEIDKPSQHHHHHH
notes: 10Fn3 Adnectin
Kd [1]: 0.038 nM | Kd [2]: 0.028 nM | koff [2]: 6.9e-05 s⁻¹ | kon [2]: 2.5e+06 M⁻¹ s⁻¹ | EC50 [3]: 0.028 nM

B14: ATI-967 (designed binder)
chain: MGVSDVPRDLEVVAATPTSLLISWQGQLSPSFYYRITYGETGGNSPVQEFTVPVASGTATISGLKPGVDYTITVYAVTSHGIYFYAPISINYRTEIDKPSQHHHHHH
notes: 10Fn3 Adnectin; also called parent of ADX_5417_E01
Kd [1]: 0.06 nM | Kd [2]: 0.032 nM | koff [2]: 6.7e-05 s⁻¹ | kon [2]: 2.1e+06 M⁻¹ s⁻¹

B15: cold (unlabeled) A02 Adnectin (designed binder)
chain: EVVAATPTSLLISWSYDGPIDRYYRITYGETGGNSPVQEFTVPPDQKTATISGLKPGVDYTITVYAVRLEEAHYNREFPISINYRT
PET uptake of ^64Cu-A02 in hPD-L1(+) L2987 relative to hPD-L1(-) HT-29 xenografts when co-injected with 3 mg/kg unlabeled A02 Adnectin [5]: 1.04 fold
